# Data as given in the Human Domainome abundance scans (Beltran et al. 2025).
# ± gives the uncertainty stated by the source.
# B1: Triacylglycerol hydrolase DDHD2, residues 389 to 447; numbered along this chain, O94830 (parent)
# chain: TLEEDLKKLQLSEFFDIFEKEKVDKEALALCTDRDLQEIGIPLGPRKKILNYFSTRKNS
# Variants of: B1
# Experiment: abundance fitness (aPCA) (normalised: wild type 0, dead -1); higher = more abundant; growth selection in yeast, the domain comes from the species named
# Details: Homo sapiens
row,Variant,abundance fitness
1,V23D,-0.177 ± 0.094
2,V23F,0.437 ± 0.11
3,V23G,-0.426 ± 0.074
4,V23R,-0.311 ± 0.072
5,V23I,0.417 ± 0.097
6,E13T,-0.538 ± 0.15
7,E13R,-0.408 ± 0.098
8,I49H,-0.07 ± 0.12
9,I49C,-0.33 ± 0.097
10,I49N,-0.589 ± 0.14
11,I49A,-0.244 ± 0.093
12,I49W,-0.477 ± 0.11
13,I49K,-0.467 ± 0.13
14,I49Y,-0.946 ± 0.19
15,I49L,-0.077 ± 0.069
16,Y52D,-0.088 ± 0.1
17,Y52N,0.151 ± 0.12
18,Y52G,-0.34 ± 0.067
19,Y52Q,0.123 ± 0.12
20,Y52M,-0.21 ± 0.082
21,Y52R,-0.237 ± 0.059
22,Y52F,0.172 ± 0.16
23,R34H,0.085 ± 0.13
24,R34S,0.074 ± 0.061

row,Variant,abundance fitness
1,R34L,-0.001 ± 0.063
2,R34I,-0.135 ± 0.13
3,R34T,0.076 ± 0.082
4,R34K,-0.087 ± 0.095
5,R34E,0.463 ± 0.084
6,R34M,0.32 ± 0.092
7,R34A,0.216 ± 0.077
8,D24I,-1.2 ± 0.37
9,D24C,-0.087 ± 0.16
10,D24S,0.466 ± 0.082
11,D24P,-0.561 ± 0.18
12,D24W,-0.888 ± 0.2
13,D24M,-0.286 ± 0.13
14,D24Q,-0.044 ± 0.15
15,L30A,0.477 ± 0.078
16,L30F,-0.031 ± 0.096
17,L30H,0.377 ± 0.11
18,L30N,0.687 ± 0.086
19,L30I,0.513 ± 0.1
20,L30Y,0.164 ± 0.1
21,L30D,0.423 ± 0.093
22,L30E,0.49 ± 0.09
23,A29P,0.03 ± 0.091
24,A29H,0.06 ± 0.11

row,Variant,abundance fitness
1,A29D,-0.264 ± 0.12
2,A29G,-0.191 ± 0.074
3,A29I,0.012 ± 0.11
4,A29W,-0.399 ± 0.09
5,A29N,0.142 ± 0.099
6,A29M,-0.156 ± 0.11
7,L6K,-0.335 ± 0.15
8,L6M,-0.208 ± 0.12
9,L6Q,-0.336 ± 0.17
10,L6S,-0.767 ± 0.13
11,L6Y,-0.675 ± 0.43
12,L6A,-1.1 ± 0.11
13,L6P,-0.35 ± 0.1
14,L6W,-0.45 ± 0.11
15,C31Q,-0.145 ± 0.13
16,C31R,-0.188 ± 0.071
17,C31K,0.489 ± 0.094
18,C31G,-0.294 ± 0.059
19,C31S,0.165 ± 0.063
20,C31A,0.343 ± 0.065
21,C31E,-0.366 ± 0.099
22,C31I,0.035 ± 0.1
23,Q37Y,-0.232 ± 0.13
24,Q37M,-0.024 ± 0.087

row,Variant,abundance fitness
1,Q37W,-0.37 ± 0.098
2,Q37T,-0.129 ± 0.089
3,Q37R,-0.302 ± 0.073
4,N58T,-0.049 ± 0.11
5,N58V,-0.015 ± 0.078
6,N58R,-0.332 ± 0.074
7,N58F,-0.422 ± 0.17
8,E38M,0.033 ± 0.097
9,E38D,0.067 ± 0.077
10,E38T,-0.051 ± 0.083
11,E38A,0.181 ± 0.077
12,F14S,-0.511 ± 0.082
13,F14R,-0.671 ± 0.075
14,F14A,-0.098 ± 0.086
15,F14C,-0.28 ± 0.11
16,R56Y,0.019 ± 0.11
17,R56N,-0.236 ± 0.15
18,R56P,0.084 ± 0.093
19,R56S,-0.027 ± 0.072
20,R56D,0.05 ± 0.11
21,R56K,-0.143 ± 0.14
22,R56W,-0.1 ± 0.098
23,R46P,-0.628 ± 0.11
24,R46V,-0.52 ± 0.068

row,Variant,abundance fitness
1,R46S,-0.058 ± 0.066
2,R46D,-0.242 ± 0.098
3,R46Q,-0.243 ± 0.12
4,K25R,-0.053 ± 0.06
5,K25E,0.293 ± 0.08
6,K25T,-0.302 ± 0.1
7,K25A,-0.05 ± 0.086
8,L11M,-0.125 ± 0.058
9,L11N,-1.02 ± 0.21
10,L11V,-0.401 ± 0.053
11,L11P,-1 ± 0.089
12,L11H,-0.83 ± 0.1
13,Q10R,-0.247 ± 0.052
14,Q10T,-0.241 ± 0.08
15,Q10P,-0.863 ± 0.093
16,Q10Y,-0.191 ± 0.17
17,Q10M,-0.1 ± 0.074
18,Q10C,-0.101 ± 0.078
19,G40Q,-0.216 ± 0.12
20,G40T,-0.67 ± 0.1
21,G40H,-0.502 ± 0.19
22,G40V,-0.689 ± 0.078
23,G40W,-1.23 ± 0.17
24,S12K,-0.032 ± 0.078

row,Variant,abundance fitness
1,S12E,0.016 ± 0.066
2,S12W,-0.137 ± 0.075
3,S12L,-0.104 ± 0.054
4,S12H,0.052 ± 0.083
5,S12Y,-0.13 ± 0.088
6,S12T,0.017 ± 0.059
7,L28T,-0.342 ± 0.1
8,L28I,-0.368 ± 0.11
9,L28R,-0.498 ± 0.074
10,L28P,-0.504 ± 0.12
11,L28A,-0.352 ± 0.083
12,L28Y,-0.634 ± 0.15
13,L28G,-0.386 ± 0.074
14,L28H,-0.252 ± 0.14
15,L28M,-0.067 ± 0.11
16,K22Q,-0.247 ± 0.11
17,K22F,0.002 ± 0.09
18,K7T,-0.196 ± 0.099
19,K7A,-0.032 ± 0.086
20,K7E,-0.017 ± 0.14
21,K7Y,-0.006 ± 0.14
22,K7R,0.108 ± 0.074
23,K7I,-0.741 ± 0.38
24,K7H,-0.07 ± 0.16

row,Variant,abundance fitness
1,F53G,-0.213 ± 0.062
2,F53N,-0.073 ± 0.13
3,F53H,-0.285 ± 0.13
4,F53S,-0.237 ± 0.088
5,F53Q,-0.118 ± 0.12
6,K47N,0.254 ± 0.1
7,K47W,-0.368 ± 0.098
8,K47C,0.136 ± 0.081
9,K47R,-0.065 ± 0.064
10,T32I,-0.924 ± 0.14
11,T32H,-0.359 ± 0.14
12,T32A,-0.226 ± 0.086
13,T32V,-0.631 ± 0.082
14,T32G,-0.337 ± 0.069
15,T32Q,-0.251 ± 0.12
16,T32E,0.056 ± 0.091
17,T32N,-0.217 ± 0.13
18,L2K,-0.426 ± 0.11
19,L2H,-0.818 ± 0.17
20,L2Q,-0.65 ± 0.12
21,E4M,-0.109 ± 0.071
22,E4G,-0.436 ± 0.074
23,E4D,-0.205 ± 0.1
